The text below walks through data of doi:10.1101/521815 (bioRxiv, 2019).

Residue numbers refer to the chain shown, from its start. Names may count otherwise.

B1: ABIN-1 UBAN (mouse, aa 463-532), GST tag cleaved (domain or fragment, UniProt Q9WUU8 463-532, looked up)
chain: LRKQELVTQNELLKQQVKIFEEDFQRERSDRERMNEEKEELKKQVEKLQAQVTLTNAQLKTLKEEEKAKE
B2: GST-NEMO UBAN (aa 250-339), wild type (domain or fragment, mouse, UniProt O88522 250-339, looked up)
chain: GMQLEDLRQQLQQAEEALVAKQELIDKLKEEAEQHKIVMETVPVLKAQADIYKADFQAERHAREKLVEKKEYLQEQLEQLQREFNKLKVG
B3: GST-NEMO UBAN (aa 250-339) A303E (domain or fragment, mouse, UniProt O88522 250-339, looked up)
chain: B2 chain with A54E
B4: GST-ABIN-1 UBAN (aa 463-532), wild type (domain or fragment, mouse, UniProt Q9WUU8 463-532, looked up)
chain: B1 chain
B5: GST-OPTN UBAN (aa 420-509) S473E (domain or fragment, human, UniProt Q96CV9 420-509, looked up)
chain: RAVLKELSEKLELAEKALASKQLQMDEMKQTIAKQEEDLETMTILRAQMEVYCEDFHAERAAREKIHEEKEQLALQLAVLLKENDAFEDG
B6: GST-OPTN UBAN (aa 420-509), wild type (domain or fragment, human, UniProt Q96CV9 420-509, looked up)
chain: B5 chain with E54S

One data set deals with the molecule itself. In words: crystal structure.
Turning to B1, the “stoichiometry N” value was 2 chains in the oligomer.

The target in a further data set is M1-linked tetra-ubiquitin (UniProt P0CG48 1-76; P0CG48 1-76; P0CG48 1-76; P0CG48 1-76). The data set can be described thus: SPR. On the technique in general: SPR reads the build-up and loss of mass on a sensor chip optically.
Sequence of M1-linked tetra-ubiquitin (P0CG48 1-304, one chain of several): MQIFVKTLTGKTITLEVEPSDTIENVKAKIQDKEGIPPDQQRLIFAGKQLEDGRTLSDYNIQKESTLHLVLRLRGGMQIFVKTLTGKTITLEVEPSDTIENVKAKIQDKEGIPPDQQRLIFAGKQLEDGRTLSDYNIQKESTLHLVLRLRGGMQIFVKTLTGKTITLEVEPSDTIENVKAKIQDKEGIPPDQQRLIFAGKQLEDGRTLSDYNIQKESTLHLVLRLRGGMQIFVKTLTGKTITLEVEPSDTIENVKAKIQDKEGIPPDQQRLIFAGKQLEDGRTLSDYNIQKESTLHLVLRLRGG
Take B2: the Kd is 562 nM. The same measure, in the same setting: in the case of B3 it was 362 nM; in that of B4, 972 nM. Still for that read-out and setting: the value for B5 was 508 nM. The molecule B6 displayed a Kd of 916 nM.

By stoichiometry N is commonly meant a count of units in the complex or per binding partner. What is called Kd is the constant that tells how readily two partners part at equilibrium. A high value points to lower affinity.
